Reference: patent publication US20040076958

T1: AA21 synthetic peptide (N21 with two conserved glycines replaced by alanine)
T1 chain: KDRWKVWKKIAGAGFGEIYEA


Experiments:
[1] = target: recombinant human tau (1-441), full length tau, P10636
[2] = target: T1, AA21 synthetic peptide (N21 with two …)

recombinant human tau (1-441), full length tau, P10636, sequence (P10636 whole entry, looked up, tested part not stated): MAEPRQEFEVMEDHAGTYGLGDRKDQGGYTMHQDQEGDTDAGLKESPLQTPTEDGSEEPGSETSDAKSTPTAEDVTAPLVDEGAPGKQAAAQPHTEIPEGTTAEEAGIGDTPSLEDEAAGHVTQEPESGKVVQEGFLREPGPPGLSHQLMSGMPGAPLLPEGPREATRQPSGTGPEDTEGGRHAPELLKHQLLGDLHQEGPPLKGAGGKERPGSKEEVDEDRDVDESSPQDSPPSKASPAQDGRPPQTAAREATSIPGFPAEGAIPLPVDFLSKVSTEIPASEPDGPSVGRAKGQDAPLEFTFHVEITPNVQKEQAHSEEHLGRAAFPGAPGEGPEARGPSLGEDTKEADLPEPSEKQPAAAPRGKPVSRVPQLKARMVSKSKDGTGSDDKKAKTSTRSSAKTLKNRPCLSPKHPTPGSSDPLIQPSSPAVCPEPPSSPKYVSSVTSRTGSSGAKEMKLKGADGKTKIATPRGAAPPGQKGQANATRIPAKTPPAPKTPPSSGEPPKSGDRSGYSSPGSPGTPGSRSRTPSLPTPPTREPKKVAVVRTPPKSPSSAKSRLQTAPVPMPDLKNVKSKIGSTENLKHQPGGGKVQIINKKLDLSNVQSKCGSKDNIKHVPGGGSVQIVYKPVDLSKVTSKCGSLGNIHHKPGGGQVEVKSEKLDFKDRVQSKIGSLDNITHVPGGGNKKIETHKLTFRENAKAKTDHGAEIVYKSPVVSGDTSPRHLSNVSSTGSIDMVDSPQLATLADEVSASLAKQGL

Protein	tau phosphorylation [1]	BDTK phosphorylation and tau phosphorylation in vitro (AA21-BDTK, AA21-tau) [2]	tau phosphorylation in vitro ([gamma-32P]ATP, SDS-PAGE, autoradiography) [1]	time at which tau phosphorylation was saturated, pH 6.5 [1]	time at which tau phosphorylation was saturated, pH 7.5 [1]
Brain Derived Tau Kinase (BDTK) (protein) MQCLAAALKDETNMSGGGEQADILPANYVVKDRWKVVKKIGGGGFGEIYEAMDLLTRENVALKVESAQQPKQVLKMEVAVLKKLQGKDHVCRFIGCGRNEKFNYVVMQLQGRNLADLRRSQPRGTFTLSTTLRLGKQILESIEAIHSVGFLHRDIKPSNFAMGRLPSTYRKCYMLDFGLARQYTNTTGDVRPPRNVAGFRGTVRYASVNAHKNREMGRHDDLWSLFYMLVEFAVGQLPWRKIKDKEQVGMIKEKYEHRMLLKHMPSEFHLFLDHIASLDYFTKPDYQLIMSVFENSMKERGIAENEAFDWEKAGTDALLSTSTSTPPQQNTRQTAAMFGVVNVTPVPGDLLRENTEDVLQGEHLSDQENAPPILPGRPSEGLGPSPHLVPHPGGPEAEVWEETDVNRNKLRINIGKSPCVEEEQSRGMGVPSSPVRAPPDSPTTPVRSLRYRRVNSPESERLSTADGRVELPERRSRMDLPGSPSRQACSSQPAQMLSVDTGHADRQASGRMDVSASVEQEALSNAFRSVPLAEEEDFDSKEWVIIDKETELKDFPPGAEPSTSGTTDEEPEELRPLPEEGEERRRLGAEPTVRPRGRSMQALAEEDLQHLPPQPLPPQLSQGDGRSETSQPPTPGSPSHSPLHSGPRPRRRESDPTGPQRQVFSVAPPFEVNGLPRAVPLSLPYQDFKRDLSDYRERARLLNRVRRVGFSHMLLTTPQVPLAPVQPQANGKEEEEEEEEDEEEEEEDEEEEEEEEEEEEEEEEEEEEEEEAAAAVALGEVLGPRSGSSSEGSERSTDRSQEGAPSTLLADDQKESRGRASMADGDLEPEEGSKTLVLVSPGDMKKSPVTAELAPDPDLGTLAALTPQHERPQPTGSQLDVSEPGTLSSVLKSEPKPPGPGAGLGAGTVTTGVGGVAVTSSPFTKVERTFVHIAEKTHLNVMSSGGQALRSEEFSAGGELGLELASDGGAVEEGARAPLENGLALSGLNGAEIEGSALSGAPRETPSEMATNSLPNGPALADGPAPVSPLEPSPEKVATISPRRHAMPGSRPRSRIPVLLSEEDTGSEPSGSLSAKERWSKRARPQQDLARLVMEKRQGRLLLRLASGASSSSSEEQRRASETLSGTGSEEDTPASEPAAALPRKSGRAAATRSRIPRPIGLRMPMPVAAQQPASRSHGAAPALDTAITSRLQLQTPPGSATAADLRPKQPPGRGLGPGRAQAGARPPAPRSPRLPASTSAARNASASPRSQSLRRESPSPSHQARPGVPPPRGVPPARAQPDGTPSPGGSKKGPRGKLQAQRATTKGRAGGAEGRAGAR	Full length BDTK (SEQ ID NO:1), and isolated BDTK kinase domain (amino acids 38-319, SEQ ID NO:4) are able to phosphorylate tau	AA21 mutated peptide rather increased both BDTK (AA21-BDTK, from 30 to 300 )µM) and tau phosphorylation (AA21-tau, from 30 µM to 1 µM) in dose response manner	–	–	–
His-tagged BDTK(38-319), BDTK kinase domain (protein) KKIGGGGFGEIYEAMDLLTRENVALKVESAQQPKQVLKMEVAVLKKLQGKDHVCRFIGCGRNEKFNYVVMQLQGRNLADLRRSQPRGTFTLSTTLRLGKQILESIEAIHSVGFLHRDIKPSNFAMGRLPSTYRKCYMLDFGLARQYTNTTGDVRPPRNVAGFRGTVRYASVNAHKNREMGRHDDLWSLFYMLVEFAVGQLPWRKIKDKEQVGMIKEKYEHRMLLKHMPSEFHLFLDHIASLDYFTKPDYQLIMSVFENSMKERGIAENEAFDWEKAGTDALL	–	–	did phosphorylate tau protein as well as BDTK itself	120 min at pH 6.5	tau phosphorylation was saturated at 60 min at pH 7.5
